Test results taken from patent US20170233495.

Target: All antibodies according to the invention, which were tested (Example 4)

Row | Protein | cleavage of fluorogenic peptide OmniMMP RED by MMP catalytic domain, antibody at 100 nM
1 | recombinant catalytic domain of human MMP12 (protein) GPVWRKHYITYRINNYTPDMNREDVDYAIRKAFQVWSNVTPLKFSKINTGMADILVVFARGAHGDFHAFDGKGGILAHAFGPGSGIGGDAHFDEDEFWTTHSGGTNLFLTAVHEIGHSLGLGHSSDPKAVMFPTYKYVDINTFRLSADDIRGIQSLYG | had no significant effect on the catalytic activity of the eight other human MMPs tested
2 | recombinant catalytic domain of human MMP1 (protein) FVLTEGNPRWEQTHLTYRIENYTPDLPRADVDHAIEKAFQLWSNVTPLTFTKVSEGQADIMISFVRGDHRDNSPFDGPGGNLAHAFQPGPGIGGDAHFDEDERWTNNFREYNLHRVAAHELGHSLGLSHSTDIGALMYPSYTFSGDVQLAQDDIDGIQAIYGRSQNPVQP | had no significant effect on the catalytic activity of the eight other human MMPs tested
